Experimental data taken from the DeepSol protein solubility set.

Test: soluble on expression in E. coli; label from the status in PepcDB or PDB records

Sequence | soluble on expression in E. coli
MSLVLSAGRLNKNSLGIAVLLCTGLLLAGCSSNSGSGTYSGSVYTVKRGDTLYRISRATGTSVKELARLNGISPPYTIEVGQRIKVRGSAKSSTSTRKTSNKTATKTAAVRPSSSVPKSSWPPVGQRCWVWPANGKVILPYSTAEGGNKGIDIAGARGTPVYAAGAGKVVYVGNQLRGYGNLIMIKHNEDYITAYAHNDTMLVNNGQSVKAGQKIATMGSTDAASVRLHFQIRYRATAIDPLRYLPPQGSKPKCEGHHHHHH | not soluble
QDTSPDTLVVTANRFEQPRSTVLAPTTVVTRQDIDRWQSTSVNDVLRRLPGVDITQNGGSGQLSSIFIRGTNASHVLVLIDGVRLNLAGVSGSADLSQFPIALVQRVEYIRGPRSAVYGSDAIGGVVNIITTRDEPGTEISAGWGSNSYQNYDVSTQQQLGDKTRVTLLGDYAHTHGYDVVAYGNTGTQAQTDNDGFLSKTLYGALEHNFTDAWSGFVRGYGYDNRTNYDAYYSPGSPLLDTRKLYSQSWDAGLRYNGELIKSQLITSYSHSKDYNYDPHYGRYDSSATLDEMKQYTVQWANNVIVGHGSIGAGVDMQMQMTTPGTGYVEDGYDQRNTGIYLTGLQQVGDFTFEGAARSDDNSQFGRHGTWQTSAGWEFIEGYRFIASYGTSYKAPNLGQLYGFYGNPNLDPEKSKQWEGAFEGLTAGVNWRISGYRNDVSDLIDYDDHTLKYYNEGKARIKGVEATANFDTGPLTHTVSYDYVDARNAITDTPLLRRAKQQVKYQLDWQLYDFDMGMTMQYLGTRYDKDYSSYPYQTVKMGGVSLWDLAVAYPVTSHLTVRGKIANLFDKDYETVYGYQTAGREYTLSGSYTF | soluble
MAHHHHHHMADATLLHHLIEVLPKAELHVHIEGTLSPELLFELAKRNGVQIPYKTVEEVRVAYNFTDLQSFLDLYYEGMSVLITEDDFEDLAYAYTRVMHESRVVHAEPFFDPQGHLCRGVTFRVLYDGLMRGFRRGEAEFGVSVMLIFSFLRHLSEEECLALVLDDMHPDNGQYIRELFVAKAFVAVGLDSSELGHPPEKFARLYRYCREELKVPFLVAHAGEEGPPEYMRDAMSMLKVDRIDHGVAARLDQALCKDLREKRIPLTVCPTSNVALKVFQDRATCGAVVMDLILTEGLCVTINSDDPAYFGGDIRESFRILAETGRLTPATLKQLVLNSFSSSFIADDSKRAYKERVEKVFKDVCGGTYE | soluble
MTTDERKLFNHLKSPHLKYWVPFIWFGNLATKARNEGRIRDSVDLQSLMTEMNRYRSWCSLLFGYDWVGIPLVYTQVAEQLINPFGEDDDDFETNWCIDRNLQVSLLAVDEMHMSLPKMKKDIYWDDSAARPPYTLAAADYCIPSFLGSTVQMGLSGSDFPDEEWLWDYEKHGHRHSMIRRVKRFLSAHEHPSSPRRRSYRRQTSDSSMFLPRDDLSPARDLLDVPSRNPPRASPTWKKSCFPEGSPTLHFSMGELSTIRETSQTSTL | soluble
RHMELSPDGNLKTTITIGDRLTYDITCNGRQILTPSPISMTLDNGTVWGENAKLSGTSRKSVDEMIPSPFYRASELRNHYNGLTLRFKKDWNVEFRAYNDGIAYRFVNQGKKPFRVVTEVSDYCFPSDMTASVPYVKSGKDGDYNSQFFNSFENTYTTDKLSKLNKQRLMFLPLVVDAGDGVKVCITESDLENYPGLYLSASEGANRLSSMHAPYPKRTVQGGHNQLQMLVKEHEDYIAKVDKPRNFPWRIAVVTTTDKDLAATNLSYLLGAPSRMSDLSWIKPGKVAWDWWNDWNLDGVDFVTGVNNPTYKAYIDFASANGIEYVILDEGWAVNLQADLMQVVKEIDLKELVDYAASKNVGIILWAGYHAFERDMENVCRHYAEMGVKGFKVDFMDRDDQEMTAFNYRAAEMCAKYKLILDLHGTHKPAGLNRTYPNVLNFEGVNGLEQMKWSSPSVDQVKYDVMIPFIRQVSGPMDYTQGAMRNASKGNYYPCYSEPMSQGTRCRQLALYVVFESPFNMLCDTPSNYMREPESTAFIAEIPTVWDESIVLDGKMGEYIVTARRKGDVWYVGGITDWSARDIEVDCSFLGDKSYHATLFKDGVNAHRAGRDYKCESFPIKKDGKLKVHLAPGGGFALKIK | soluble
MAHHHHHHMLCAGKGRVEATQDVARQFLRKCVERLEKNEKDMAVKFDITMTMVSLRCADQCCDLLKPGASYEKMMMGSSPVYGPCLLGLETKVHKTASECVSSFDAGLKNAKEDKEIVAAFFVLKTIKKTGAEEEVHLSSLCIALCGETVAHKTDIRDKAASSPHRLFRYAVDGACVTVSGLWIVSKDVDAREGLEVERKMREVKNQPPRSGNVKRFVDYTYKEIMRQKEKLESATGSEKKTREAQIERMEEMVKDAKELLTSPENTRPKGYSMGR | not soluble
MGSDKIHHHHHHMLIEIPNVFSKQEVNQLREQLDARTWIDGNQTSGMMASTRKRNQQLDKDDPVALQIGELIMARLLAHPLFVSAALPLQFYPPLFNRYQGGDTFGYHIDNAIRSTSDGMVRTDLSATLFLSELNAYEGGELVIQDTYGQQSIKLAAGSLVLYPSTSLHQVTPVTSGERTSAFMWLQSMVRDEGQRRLLFQLDQSIQTLTAQQAAEQELFNLTGVYHNLLRRWSEL | not soluble
MHHHHHHSSGRENLYFQGIPTISELKKDRIIPHVFPNDKIDLNVDLFISFKAGKEVNHGNVLDIAGTGSVPRNIKFSEEPPDGYCFVLFMVDPDYPSRLRPDGKEYIHWVVSGIKTKELIKGTQKNCVTILPYVGPSIKKGTGLHRISFIISLIKEEDKDNITGLPHYKGEKYITRVKFNNYESVHNIAQINNMKIVGYNWCQIE | soluble
MSLEQKQMEEKIMNLLTSAPDKTFALEDLEIEIALNNADNFKLMVKALVKLEDSGTIVRSRKNRYALPEKMDLVKGTFRAHERGFGFVLPEEKEMDDIFIPPNEVKDAMNGDLVFATITKRKGDNLAEGTIKKIVERKTTQIVGTYMEDLAGTPIVMPDDKRLFGEVEIDLEDGLKPVDGHKVIVELTEYATGHARARGVVKSIIGHRNDPGVDILSIIHKHGISIGFPEEVMEQVSKAPDLVDDSDIGNRRDLRDQMIITIDGADAKDLDDAVTVKQLPNGNWKLGVHIADVTHYVTEGSPLDIEAQERGTSVYLVDRVIPMLPHKLSNGICSLNPQVDRFTMSCEMEIDQEGHVVNHEIFESIIKTTERMTYTDVNDILVEKDEALREKYAPIVPMLEAMQNLAEILRRKREKRGAIDFDFKEARVVVDEDGHPEAVVMRERSAGEHLIEEFMLAANETVAEHFHWMDVPFIYRIHEDPKEDKLARFFEFITNFGLIVKGTANDIHPAALQQVLEEVKGKPEEMVVSTVMLRSMQQAKYDTVSAGHFGLSTDFYTHFTSPIRRYPDLIVHRLIREYLINGDVRPETLEKRAEELPEIAEHSSKMERRAVEAERETDELKKTEFMVDKVGERFIGIISSVTNFGLFIELPTTIEGLVHVSAMKGDYFKFHQNQLAMIGERTGQIYRIGDEVEVEVTKVDVDAREIDFALRSEGKPGPVSDKQKRQREKPIDKTRNFKSSSKNNRNKRRTGKSEDVKPKTERKDDEWYTKPKKKKKKKPFYQGVAKESPKKKKRREGHHHHHH | soluble
MLEEYRKHVAERAAEGIAPKPLDANQMAALVELLKNPPAGEEEFLLDLLTNRVPPGVDEAAYVKAGFLAAIAKGEAKSPLLTPEKAIELLGTMQGGYNIHPLIDALDDAKLAPIAAKALSHTLLMFDNFYDVEEKAKAGNEYAKQVMQSWADAEWFLNRPALAEKLTVTVFKVTGETNTDDLSPAPDAWSRPDIPLHALAMLKNAREGIEPDQPGVVGPIKQIEALQQKGFPLAYVGDVVGTGSSRKSATNSVLWFMGDDIPHVPNKRGGGLCLGGKIAPIFFNTMEDAGALPIEVDVSNLNMGDVIDVYPYKGEVRNHETGELLATFELKTDVLIDEVRAGGRIPLIIGRGLTTKAREALGLPHSDVFRQAKDVAESDRGFSLAQKMVGRACGVKGIRPGAYCEPKMTSVGSQDTTGPMTRDELKDLACLGFSADLVMQSFCHTAAYPKPVDVNTHHTLPDFIMNRGGVSLRPGDGVIHSWLNRMLLPDTVGTGGDSHTRFPIGISFPAGSGLVAFAAATGVMPLDMPESVLVRFKGKMQPGITLRDLVHAIPLYAIKQGLLTVEKKGKKNIFSGRILEIEGLPDLKVEQAFELTDASAERSAAGCTIKLNKEPIIEYLNSNIVLLKWMIAEGYGDRRTLERRIQGMEKWLANPELLEADADAEYAAVIDIDLADIKEPILCAPNDPDDARPLSAVQGEKIDEVFIGSCMTNIGHFRAAGKLLDAHKGQLPTRLWVAPPTRMDAAQLTEEGYYSVFGKSGARIEIPGCSLCMGNQARVADGATVVSTSTRNFPNRLGTGANVFLASAELAAVAALIGKLPTPEEYQTYVAQVDKTAVDTYRYLNFNQLSQYTEKADGVIFQTAV | soluble
MSNEQLADLTQPQRDRLAFVELRVRFIGEIRRQDLVTRFGIQSAAASRDLALYKELAPGNIDYDSKGKSYVLGPDFRPVFDFPPERVLSWLTQGFGDGEPMRLKAWVASESPSRLTHPDLDVLASVTRAIHQECPLGIEYHSISSGRTEREIVPFALIDNGLRWHVRAFDRKSQEFRDFVITRIKRPVLIRDAEVQSHERSDQDIQWTRIVELEMVPHPDQPRPEITEMDYGMVRGSLRMKLRAATAGYILRQWSVDCSPDHSLRGYEFRLWLKDHLALYGVKNAVLAPGYRSPDQNKGEQ | soluble
SYSVGQVAGFAGVTVRTLHHYDDIGLLVPSERSHAGHRRYSDADLDRLQQILFYRELGFPLDEVAALLDDPAADPRAHLRRQHELLSARIGKLQKMAAAVEQAMEARS | soluble
MAHHHHHHMLRRVVAPAPVSATAACAGQARSIYEYKFGQTPLTQPFGGTSRLPPGPSSNPAPVAPGKVEITKLHNGARVITHNLGGPSVSVGAYILAGPAYDPPSAPGAGAMMHLALTTSNYNNSLFQLDRNIRSVGAAQSHFEKHKHYIGIRIDARADKWKSAASTSSFSQRRQLQNQKQAEQQFSLNLVQDNIFTCIAAPRFHEPDVERFRDTIDNQVEELRWQCPAEYAKQMLETVAFYREPLGNPRFVPAMSNSIISSSVLLEQYSRYIVPSRVVVAGVNVDHAALIAEYENTPFPHSASAPHHARAQPCVVNWKDEASQYTGGERHDHEDRPKVMGTKPDMDPESIIAVGWLAYGKDRKMVKDHAASMVVGALMDIGFSGCMRCGAPDEMHEHTGLRAFYNPYQTAGLIGFTAKAEPQAAVRMVTDAVKMVRASQASVADSMLSVAKKMAKTQFMVQTVDTIRDYCDYLGTCLAVDSDSTLATSVEEVVDAINSVNAADVKRVYEKMFSNKTSLYGHGEMLGFPSMRQMGL | not soluble
MKSLEEKTIAKEQIFSGKVIDLYVEDVELPNGKASKREIVKHPGAVAVLAVTDEGKIIMVKQFRKPLERTIVEIPAGKLEKGEEPEYTALRELEEETGYTAKKLTKITAFYTSPGFADEIVHVFLAEELSVLEEKRELDEDEFVEVMEVTLEDALKLVESREVYDAKTAYAIQYLQLKEALQAQK | not soluble
MTNDYQQLNYLVETDDEADIIIANLVKQLNELKEILLSLDNQDLEINQVNHRTTVHNTSSNTSNNSTSNNIADGNYNSNFFHNFSKETLQTQAKRGFLLLERCSLVGLQQLELEYLNVLGRSFESHQDKINFLVNLRDLTNDHLLDTEKIVSTLEQIFNVIGGTEYTPILNSFFNQSLNDPDPIQREIGLKQFVANLRQRFKTLLQKTNNSIQQLEAEIQIPTTHIKSDEVMFGPPDMNERLVLNDSETDAILRSIEAELESALQNKKQVVVTAVPPIAANLATDSISQETLEHNLNNTETVNTTTVTVTSASETQVRKPQISLRPIFQGNFPKRLSREDIQRYAHQLQELEQSNEG | soluble
